Numbering of substitutions follows the chain as printed.
B1: monoclonal anti-PDGF-CC antibody 6B3 (antibody, V domains shown)
VH: QVQLQQSGVEVARPGASVKLSCKASGYTFRSYGITWVRQRTGQGLEWIGEIYPRSGKTYYNEKFKGKATLTADTSSSTVYMELRSLTSEDSAVYFCAREGYGYDGGYFDYWGQGTTLTVSS
VL: DIVMTQSPSSLAMSVGQKVTMSCKSSQSLLNSRNQKNYLAWYQQKPGQSPKLLVYFASTRESGVPDRFTGSGSGTDFTLTISSVQAEDLAVYYCQQHYSTPLTFGAGTKLELK
notes: VH CDR1 (Kabat combined with Chothia); VH CDR2; VH CDR3; VL CDR1 (Kabat combined with Chothia); VL CDR2; VL CDR3; Mouse IgG2a, kappa; Only the CDRs are printed; frameworks are not; also called mAb 6B3; clone 6B3; source: mouse hybridoma; culture supernatant, or IgG purified (HiTrap-Protein G)
B2: monoclonal anti-PDGF-CC antibody 11F5 (antibody, V domains shown)
VH: QVQLQQSGAELARPGASVKLSCKASGYIFISYGISWVKQRTGQGLEWIGEIYPRSGKTYYNEKFKDKAALTADKSSSIAYMELRSLTSEDSAVYFCAREGYGYDGGYFDYWGQGTILTVSS
VL: B1 VL with T20A, M21V, R33S, E61D
notes: VH CDR1 (Kabat combined with Chothia); VH CDR2; VH CDR3; VL CDR1 (Kabat combined with Chothia); VL CDR2; VL CDR3; Mouse IgG2a, kappa; Only the CDRs are printed; frameworks are not; also called clone 11F5; source: mouse hybridoma; culture supernatant, or IgG purified (HiTrap-Protein G)
B3: monoclonal anti-PDGF-CC antibody 19C7 (antibody, V domains shown)
VH: B1 VH
VL: B1 VL
notes: VH CDR1 (Kabat combined with Chothia); VH CDR2; VH CDR3; VL CDR1 (Kabat combined with Chothia); VL CDR2; VL CDR3; Mouse IgG2a, kappa; CDRs identical to those of 6B3; also called clone 19C7; source: mouse hybridoma; culture supernatant, or IgG purified (HiTrap-Protein G)

Columns and labels:
PDGF-AA [1] = biological target: T1, PDGF-AA (UniProt P04085); assay: ELISA; 96-well plate coated with PDGF-AA, PDGF-BB, PDGF-CC or PDGF-DD; 6B3 applied (methods: hybridoma supernatant in dilution series), anti-mouse IgG-AP, absorbance at 405 nm; settings: one partner purified
T1 construct: platelet-derived growth factor A chain homodimer

PDGF-BB [2] = biological target: T2, PDGF-BB (UniProt P01127); assay: as above; settings: one partner purified
T2 construct: platelet-derived growth factor B chain homodimer

[3] = biological target: T3, endogenous human PDGF-CC in A549 cells and placental tissue (Homo sapiens (endogenous, A549 and …, UniProt Q9NRA1)); assay: immunostaining of cells or tissue; paraffin-embedded sections of A549 cells and human placenta, citric acid antigen retrieval, 6B3 at 1.5 μg/ml, anti-mouse-HRP and DAB; with or without 1 h pre-incubation of 6B3 with 6.7 X excess PDGF-CC His6 (10 μg/ml); settings: one partner purified
T3 construct: platelet-derived growth factor C, endogenous; source: endogenous, paraffin-embedded sections of the A549 cell line and human placental tissue

human PDGF-DD [4] = biological target: T4, human PDGF-DD (Homo sapiens, UniProt Q9GZP0); assay: immunoblot; recombinant PDGF proteins run reduced and non-reduced, blotted and probed with murine mAb IgG; settings: both partners purified
[5] = biological target: T5, human latent full-length PDGF-CC (Homo sapiens, UniProt Q9NRA1); assay: as above; settings: both partners purified
T5 construct: platelet-derived growth factor C, human, latent full-length form with the CUB domain; also called hPCf; latent PDGF-CC

[6] = biological target: T6, recombinant human PDGF-CC core domain protein (activated PDGF-CC, growth factor domain) (human, UniProt Q9NRA1); assay: as above; settings: both partners purified
T6 construct: platelet-derived growth factor C, human, core domain (growth factor domain, GFD) released from the N-terminal CUB domain; also called hPCc; active PDGF-CC

PDGF-AA [7] = biological target: T1, PDGF-AA; assay: ELISA; data not shown; as the 6B3 ELISA on coated PDGF-AA, PDGF-BB, PDGF-CC and PDGF-DD, with other clones; settings: one partner purified
human PDGF-DD [8] = biological target: T4, human PDGF-DD; assay: as above; settings: one partner purified
PDGF-BB [9] = biological target: T2, PDGF-BB; assay: as above; settings: one partner purified

T2 sequence (P01127 82-190): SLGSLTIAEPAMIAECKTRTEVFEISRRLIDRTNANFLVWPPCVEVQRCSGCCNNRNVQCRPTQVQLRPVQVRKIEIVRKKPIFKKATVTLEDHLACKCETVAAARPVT
T6 sequence (Q9NRA1 230-345): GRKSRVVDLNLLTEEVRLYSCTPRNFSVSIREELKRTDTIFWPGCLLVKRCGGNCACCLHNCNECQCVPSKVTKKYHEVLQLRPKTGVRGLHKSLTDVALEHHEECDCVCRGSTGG
T3 sequence (Q9NRA1 23-345): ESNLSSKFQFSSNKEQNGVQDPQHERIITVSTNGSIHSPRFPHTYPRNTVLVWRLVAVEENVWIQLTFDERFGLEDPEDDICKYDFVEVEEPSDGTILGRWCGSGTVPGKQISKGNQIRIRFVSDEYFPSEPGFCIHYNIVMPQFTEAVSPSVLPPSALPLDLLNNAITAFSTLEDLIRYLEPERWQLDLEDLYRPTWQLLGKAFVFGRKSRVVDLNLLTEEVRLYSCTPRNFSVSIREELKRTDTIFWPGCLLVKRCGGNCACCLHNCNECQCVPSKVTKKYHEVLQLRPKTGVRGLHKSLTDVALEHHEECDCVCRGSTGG
T5 sequence (Q9NRA1 23-345): as above

Row | Binder | binding result (PDGF-AA [1]) | binding result (PDGF-BB [2]) | binding result [3] | binding result (human PDGF-DD [4]) | binding result [5] | binding result [6] | binding result (PDGF-AA [7]) | binding result (human PDGF-DD [8]) | binding result (PDGF-BB [9])
1 | B1 | no binding | no binding | binds | no binding | binds | binds | – | – | –
2 | B2 | – | – | – | – | – | – | no binding | no binding | no binding
3 | B3 | – | – | – | – | – | – | no binding | no binding | no binding
